First the molecules themselves.
B1: Azoarcus group I ribozyme (parent)
chain: GUGCCUUGCGCCGGGAAACCACGCAAGGGAUGGUGUCAAAUUCGGCGAAACCUAAGCGCCCGCCCGGGCGUAUGGCAACGCCGAGCCAAGCUUCGGCGCCUGCGCCGAUGAAGGUGUAGAGACUAGACGGCACCCACCUAAGGCAAACGCUAUGGUGAAGGCAUAGUCCAGGGAGUGGCGAAAGUCACACAAACCGG

84 variants from the RNAGym collection of RNA variant scans (doi:10.1093/molbev/msab373) can be followed below.

Variants of B1 are the subject of this data set. Nature of the data set: reverse-splicing fitness (ratio to wild type); higher = more active; in vitro selection; Mg2+ level not given. The essentials:
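An in vitro group I ribozyme library with randomized positions was T7-transcribed and gel-purified. In triplicate, 10 pmol RNA in EPPS pH 7.5 was reacted with 50 pmoles of a 30-nt RNA substrate for 1 h at 37 °C across several added MgCl2 levels (1–48 mM), then stopped with EDTA. Products were reverse transcribed from a substrate-complementary primer, PCR-amplified and sequenced (HiSeq 4000). Fitness is a variant's read proportion after selection over that before, normalised to wild type.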
Take C82G A111G A120G A145U C169U U176G: the reverse-splicing fitness was 0.00384. Consider C82G A111G A120G A145G U176G, for which the reverse-splicing fitness was 0.00696.

Take C82G A111G A120C A145C C150G: the reverse-splicing fitness came out at 0.0108. Regarding C82U A111U A120G A145U U176A, the reverse-splicing fitness is 0.012. Take A111G A120U A145U C150G U176A: the reverse-splicing fitness stood at 0.0157.

In the case of C82G A111G A120C A145C C150G U176C, the reverse-splicing fitness is 0.00886. C82A A145C C150A U176C: the reverse-splicing fitness came to 0.0306. Then C82A A145C C150A U176A, with 0.0316. Then C82U A111C A120G A145C C150U C169U, with 0.00593; and C82U A111U A120U C150A C169U U176C, with 0.00379. Then A120U A145G C150G U176A, with 0.084; and C150U C169A U176A, with 0.0259. Turning to C82U U176A, the reverse-splicing fitness was 0.386. As to C82A A111G A120U A145C C150G C169U U176G, the reverse-splicing fitness came to 0.00231. Consider C82U A111C A120G A145U C150G C169G U176G, for which the reverse-splicing fitness worked out at 0.00386.

For the variant C82G A111G A145G C150U C169G U176G, the reverse-splicing fitness amounted to 0.00635. As for A111C A120U A145G C150G C169A U176A, the reverse-splicing fitness came to 0.0118.

C82G A111U A120U C169A U176C: the reverse-splicing fitness was determined as 0.00299. For the variant A111U A120G A145U C150G U176C, the reverse-splicing fitness was determined as 0.0142. Then C82A A120U A145G C150U C169A, with 0.00691; and C82G A111U A145G C150A U176G, with 0.0141; and A111C A120U A145C C150G C169G U176C, with 0.0032. Regarding C82G A111G A120C A145U C169A U176A, the reverse-splicing fitness worked out at 0.0147.

Take C82A A111G A120G A145U C169A U176A: the reverse-splicing fitness was 0.0117.

Consider A120U A145G C150A C169U U176G, for which the reverse-splicing fitness turned out to be 0.00424.

Regarding A120U A145C C150A C169U U176C, the reverse-splicing fitness was 0.00371. C82A A111G A120C A145U C150U C169G: the reverse-splicing fitness stood at 0.00921. For A111G A120G, the reverse-splicing fitness was found to be 0.3. To A111G A120U A145C C150G C169G U176C belongs 0.0019; to C82U A111C A145C, 0.239; to C82G A120U C150U C169U U176A, 0.00509. For C82G A111G A120C A145G C150G U176C, the reverse-splicing fitness stood at 0.011. Then C82U A111G A120C A145G C169A U176G, with 0.00336.

Take A120U A145C C150A C169U: the reverse-splicing fitness is 0.0192. Regarding C82A A111C A120G A145G C150A C169U, the reverse-splicing fitness came out at 0.00923.

Turning to A111U A120C U176G, the reverse-splicing fitness came out at 0.0439. As to A111U A145C C150G C169G U176A, the reverse-splicing fitness was found to be 0.00774.

For the variant C82G A111C A145U C150A C169G, the reverse-splicing fitness was 0.0077. Take C82A A111G A120C C169G: the reverse-splicing fitness stood at 0.00888. For the variant C82G A111C A120C A145G C150G C169G U176A, the reverse-splicing fitness came to 0.0118.

A120U A145G C169U: the reverse-splicing fitness came out at 0.286. Then C82A A111C A120C A145G C150A, with 0.0108; and A111U A120G C150G U176G, with 0.00275; and C82G A111U A145U C150G, with 0.0323. Then C82G A111C A120G A145G C150G C169U U176G, with 0.00731; and A111C A120C, with 0.576. In the case of A111U A120C A145C C150G C169U U176G, the reverse-splicing fitness is 0.00478. In the case of C82A A111G A120C A145G C150U, the reverse-splicing fitness amounted to 0.0349. To C82A A120U C150G U176G belongs 0.00281; to C82G A111C A120G A145C C169A, 0.00807; to C82G A111C A145G C150A C169U U176A, 0.0153. Turning to C82U A111C A145C C150G C169U U176G, the reverse-splicing fitness is 0.00606. For the variant C82G A111U A120U A145C C150U C169U U176A, the reverse-splicing fitness came out at 0.00361. As for A111G A120G C169A U176A, the reverse-splicing fitness was 0.0455. As to A111G A120C C169G U176A, the reverse-splicing fitness was determined as 0.0158. Regarding C82G A120C A145G C150A C169U U176G, the reverse-splicing fitness turned out to be 0.00589. Turning to C82A A111G A145U C150U C169A U176C, the reverse-splicing fitness came out at 0.0114.

As for C82G A111U A120G A145G C150A C169A U176C, the reverse-splicing fitness came out at 0.0216. For C82U A111U A120C A145G C150A C169G, the reverse-splicing fitness stood at 0.00791. On to C82G A120U C150U U176A, for which the reverse-splicing fitness was found to be 0.0366.

In the case of C82U A111U A120G A145C, the reverse-splicing fitness is 0.0134. Turning to A111G A120U A145G C150A C169U U176A, the reverse-splicing fitness amounted to 0.00579. Then A111G A145G C150A C169A U176A, with 0.0183; and C82U A111G A120G A145C, with 0.0135; and C82U A120G C169A U176A, with 0.0194.

For the variant C82G A111C A120U A145U C150U C169A, the reverse-splicing fitness amounted to 0.00298. For C82G A111C A120G A145G C150A C169A U176G, the reverse-splicing fitness turned out to be 0.00723. To A111U A120U C150G C169A U176G belongs 0.00232; to C82U A111C A120C A145G C150G C169A U176G, 0.00708; to C82A A111C A120U A145G C150G C169A U176C, 0.0094.

As to A111U A120U A145C C150U, the reverse-splicing fitness came to 0.15. To C82U A111G A120U C150U C169G U176C belongs 0.00322; to C82G A111C A145G C169U, 0.0141. On to A111G A120C A145G C150A C169A, for which the reverse-splicing fitness stood at 0.0114. On to C82U A111U A120G A145G C169A U176C, for which the reverse-splicing fitness was determined as 0.031.

In the case of C82A A111C A120C C150U, the reverse-splicing fitness was 0.0169.

For the variant A111C A120C A145U U176C, the reverse-splicing fitness turned out to be 0.215.

For the variant C82A A111G A120G C150A C169A U176A, the reverse-splicing fitness amounted to 0.0228. On to C82A A111U A120G A145C C150A U176C, for which the reverse-splicing fitness turned out to be 0.0098. Turning to A111G A145U C150A C169U U176C, the reverse-splicing fitness is 0.0165. Consider A111U A120C C150A C169A, for which the reverse-splicing fitness stood at 0.0105. Regarding C82G A111C A120U C169U U176C, the reverse-splicing fitness stood at 0.00475.

As for A145U C150A C169U U176C, the reverse-splicing fitness worked out at 0.0345. On to A111G A120G A145G, for which the reverse-splicing fitness came out at 0.285.
